According to paper PMC5320947 (Angewandte Chemie (International ed. in English), 2016):

Columns and labels:
[1] = parameters: species or system mice; settings: mouse, in vivo
[2] = test system: fed blood glucose levels in C57BL/6J mice; assay type: in vivo

Substance | area under the curve (AUC) [1] | terminal elimination phase T1/2β [1] | total body clearance (CL) rate [1] | duration of blood glucose reduction after a single s.c. injection [2]
green fluorescent protein [native GFP] | 14 %h/mL | 4 h | 7 mL/h | –
exendin–C–PMPC75k: exendin–4 C–terminal conjugate with zwitterionic PMPC, larger conjugate | – | – | – | up to 3 days
